Results as given in paper PMC3656102.

Legend:
[1] = molecular target: Bunyamwera virus Gc glycoprotein (Bunyamwera virus) (UniProt P04505); assay: cryo-EM structure; electron cryo-tomography and sub-tomogram averaging of about 2,000 spikes on purified BUNV virions vitrified at pH 7.4; 3.0 nm resolution; three-fold symmetry seen without imposing it; validated by single particle averaging of spike side views
[2] = molecular target: Bunyamwera virus Gn–Gc glycoprotein heterodimer (protomer of the membrane-bound glycoprotein spike) (Bunyamwera virus); assay: as above

Substance	stoichiometry N [1]	stoichiometry N [2]
Bunyamwera virus Gc glycoprotein (from UniProt P04505 478-1433) (natural protein)	3	–
Bunyamwera virus Gn–Gc glycoprotein heterodimer (protomer of the membrane-bound glycoprotein spike) (complex)	–	3
